{"source": "patent US20180177810A1", "about": "(UNIVERSITY OF NOTRE DAME DU LAC, published 2018)", "binders": {"B1": {"name": "peptide sequence CFLDFP (peptide)", "peptide": "CFLDFP", "modifications": "not fully specified (C-terminus); also: FITC-labelled version synthesized for binding assays", "notes": "The assay for this peptide is not described separately"}}, "target": "T1, Very late antigen-4 (VLA-4; α4β1 integrin) on multiple myeloma cell lines (human, UniProt P13612 34-1032; P05556 21-798)", "T1 construct": "whole, on cells; also called VLA-4 receptor", "T1 sequence (P13612 34-1032, chain 1 of 2)": "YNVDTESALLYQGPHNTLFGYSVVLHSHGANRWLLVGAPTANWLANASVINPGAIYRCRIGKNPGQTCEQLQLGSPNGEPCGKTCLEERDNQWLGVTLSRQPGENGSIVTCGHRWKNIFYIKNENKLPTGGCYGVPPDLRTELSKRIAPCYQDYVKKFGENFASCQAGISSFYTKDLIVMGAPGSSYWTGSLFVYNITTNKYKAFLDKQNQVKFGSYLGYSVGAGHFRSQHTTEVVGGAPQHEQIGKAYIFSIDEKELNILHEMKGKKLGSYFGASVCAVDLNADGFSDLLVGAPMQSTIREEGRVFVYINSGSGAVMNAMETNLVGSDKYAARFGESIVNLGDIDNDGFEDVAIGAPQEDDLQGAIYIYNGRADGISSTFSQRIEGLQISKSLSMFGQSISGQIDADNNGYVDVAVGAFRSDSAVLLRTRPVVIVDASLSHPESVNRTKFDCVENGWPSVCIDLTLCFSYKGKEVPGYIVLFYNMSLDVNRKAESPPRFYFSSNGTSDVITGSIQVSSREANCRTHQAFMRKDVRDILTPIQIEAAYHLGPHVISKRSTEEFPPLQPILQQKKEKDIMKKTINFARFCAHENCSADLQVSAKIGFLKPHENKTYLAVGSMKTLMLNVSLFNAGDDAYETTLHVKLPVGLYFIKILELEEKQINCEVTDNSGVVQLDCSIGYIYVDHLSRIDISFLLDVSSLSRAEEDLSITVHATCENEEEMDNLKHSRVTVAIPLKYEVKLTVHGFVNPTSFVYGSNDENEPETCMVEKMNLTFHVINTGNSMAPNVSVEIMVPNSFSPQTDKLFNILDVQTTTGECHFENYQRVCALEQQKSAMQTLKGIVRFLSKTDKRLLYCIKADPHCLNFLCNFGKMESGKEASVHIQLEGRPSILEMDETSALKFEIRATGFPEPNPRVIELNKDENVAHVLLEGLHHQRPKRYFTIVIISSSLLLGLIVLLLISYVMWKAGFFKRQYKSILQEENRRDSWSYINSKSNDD", "T1 sequence (P05556 21-798, chain 2 of 2)": "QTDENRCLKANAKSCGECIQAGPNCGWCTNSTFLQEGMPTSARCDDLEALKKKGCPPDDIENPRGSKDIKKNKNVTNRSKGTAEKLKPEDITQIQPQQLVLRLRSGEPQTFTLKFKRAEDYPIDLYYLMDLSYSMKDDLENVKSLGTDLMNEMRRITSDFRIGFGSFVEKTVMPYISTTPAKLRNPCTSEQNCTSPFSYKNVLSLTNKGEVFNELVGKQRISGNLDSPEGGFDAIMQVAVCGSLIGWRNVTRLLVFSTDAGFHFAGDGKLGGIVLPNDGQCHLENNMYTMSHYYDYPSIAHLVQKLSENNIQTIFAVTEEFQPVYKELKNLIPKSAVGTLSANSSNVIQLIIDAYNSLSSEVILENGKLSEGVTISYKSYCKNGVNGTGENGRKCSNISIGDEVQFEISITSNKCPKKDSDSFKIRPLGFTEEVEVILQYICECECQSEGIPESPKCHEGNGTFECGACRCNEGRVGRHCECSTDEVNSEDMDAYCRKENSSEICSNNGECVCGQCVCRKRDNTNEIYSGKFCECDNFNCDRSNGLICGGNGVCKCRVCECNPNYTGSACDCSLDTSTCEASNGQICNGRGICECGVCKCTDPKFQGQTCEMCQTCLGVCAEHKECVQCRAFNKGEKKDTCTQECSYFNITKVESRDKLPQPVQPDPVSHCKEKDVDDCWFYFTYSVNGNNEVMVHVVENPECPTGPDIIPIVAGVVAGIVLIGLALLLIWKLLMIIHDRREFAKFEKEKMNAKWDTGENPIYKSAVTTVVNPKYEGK", "test": "peptide screen of Example 1 (FITC-labeled peptides on MM cells, flow cytometry)", "note": "Where no end group is shown, it is not given here."}
{"binder": "B1", "values": [{"measurement": "binding result", "result": "binds"}]}
